Test system: MS2 coat protein
Experiment: apparent KD of MS2 coat protein; designed switch direction (-1 OFF switch, 1 ON switch): -1; higher = weaker reporter binding
Method in brief: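 Designed RNA switches with common flanks were transcribed on Illumina chips by stalled E. coli RNA polymerase and titrated with SNAP-549-labelled MS2 coat protein, from 0.7 or 1.5 nM doubling to 3 µM, in Tris-HCl pH 7.5 buffer with KCl, MgCl2, BSA, DTT, tRNA and Tween-20. Steps lasted 0.8–1.5 h (lowest) to 10–20 min (highest). Titrations ran without input, with 200 uM small-molecule ligand, or with an oligonucleotide input. Normalised cluster fluorescence was curve-fitted, and apparent KD is the per-design median over clusters.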

[1] = input ligand: microRNA oligo, concentration not stated
[2] = Eterna round: R95, input ligand: microRNA oligo, concentration not stated
[3] = Eterna round: R95, input ligand: FMN 200 uM
[4] = Eterna round: R95, input ligand: none

## CUAGAUCUUCGGAUCUAGGACAUGAGGAUCACCCAUGUCACGAGCAGAUCUUCAUGCAAGCUUUUUGCUCGUCUUAU [Sensor v3 - Turn-off variant 1 - 37] (Eterna round: R96, puzzle: Sensor v3, turn-off variant 1)
Input ligand: FMN 200 uM
  apparent KD of MS2 coat protein: 27 nM
[1]
  apparent KD of MS2 coat protein: 339 nM
Input ligand: none
  apparent KD of MS2 coat protein: 29.2 nM

## GCAGCACAUGUAGGAUAUCUGCACGUGUAGUGCAGAGAAGGACAUGAGGAUCACCCAUGUAAUUAAGAUCAAUUAUUAAGCUGC [ENG1/3-C3] (Eterna round: R96, puzzle: Exclusion NG 1)
Input ligand: FMN 200 uM
  apparent KD of MS2 coat protein: 519 nM
[1]
  apparent KD of MS2 coat protein: 42.4 nM
Input ligand: none
  apparent KD of MS2 coat protein: 49.1 nM

## CUCUCUCGAGGAUAUACCGUAUGGUGGAAUCUCCUCGGAAGACAUGAGGAUCACCCAUGUAGAAGGCGAGAUGG [Eternabot (L2) Solution 64] (Eterna round: R97, puzzle: Exclusion 2)
Input ligand: FMN 200 uM
  apparent KD of MS2 coat protein: 144 nM
Input ligand: none
  apparent KD of MS2 coat protein: 31.3 nM

## AAUCCUGAAGUUAGGAUAUGAAGUAUCACUGCACUUCAGAAGGGACUUGAGGAUCACCCAAGUAGCCGUGAGGC [jl-bmx4.4.61 ViennaUCT mod] (Eterna round: R97, puzzle: Brourd's mod of Exclusion 4)
Input ligand: FMN 200 uM
  apparent KD of MS2 coat protein: 156 nM
Input ligand: none
  apparent KD of MS2 coat protein: 35.6 nM

## CUGUAGCUAUGAGGAUAUGCCACAAAAGUAGUUGCAGAAGGCAUCCCUACCCAGUAAGAACAUGAGGAUCACCCAUGUGAUCUG [Eternabot solution 43] (Eterna round: R96, puzzle: Exclusion NG 1)
Input ligand: FMN 200 uM
  apparent KD of MS2 coat protein: 71.6 nM
[1]
  apparent KD of MS2 coat protein: 44.5 nM
Input ligand: none
  apparent KD of MS2 coat protein: 63.4 nM

## GCGGACUAGAACGUGAGUUCUGAGACAUGAGGAUCACCCAUGUAGGAUAUCGAUUCGAAACGAAUCGAGAAGGGCAUAGUCCGC [JL denovo 11] (Eterna round: R96, puzzle: Exclusion NG 3)
Input ligand: FMN 200 uM
  apparent KD of MS2 coat protein: 15.2 nM
[1]
  apparent KD of MS2 coat protein: 14.7 nM
Input ligand: none
  apparent KD of MS2 coat protein: 17.7 nM

## AUCAUGUAAGGAUAUCUUACAUGUGACGAAAGUCACAGUUAAGAGAAGGUACAUGAGGAUCACCCAUGUAUAAC [Ex4-3: 36] (puzzle: Exclusion 4)
[2]
  apparent KD of MS2 coat protein: 26.6 nM

## GCCUCACUUGAGGAUCACCCAAGUCAGGAUAUUCACUGAACUGCGUAACAGUUCGGCCGAAGAAGGGAUUCGGG [Uscedian] (Eterna round: R97, puzzle: Exclusion 1)
Input ligand: FMN 200 uM
  apparent KD of MS2 coat protein: 35.6 nM
Input ligand: none
  apparent KD of MS2 coat protein: 96.5 nM

## UUUGUUGUUGUGAGGAUAUACUGUUUGUUUUGUUUGUAGAAGGUACAUGAGGAUCACCCAUGUUGGUUGUUUUU [JR_BME4_Sub030] (puzzle: Brourd's mod of Exclusion 4)
[2]
  apparent KD of MS2 coat protein: 24.3 nM

## UGGCUACCUUGGUGCUCUACAAGCUUUUUGCUCGUUUUAACAUGAGGAUCACCCAUGUCUAGUGGAUCUGAUCGGGC [JL ViennaUCT Isreen mod 1] (puzzle: Sensor v3, turn-off variant 2)
[3]
  apparent KD of MS2 coat protein: 62.1 nM
[2]
  apparent KD of MS2 coat protein: 139 nM
[4]
  apparent KD of MS2 coat protein: 62.7 nM

## GGUCCACAUGAGGAUCACCCAUGUUAGGAUAUCUCCUGCCUCCUAAAUGGAAGCAGACAGAGAAGGAACAUCAA [Soanatra] (puzzle: Exclusion 1)
[2]
  apparent KD of MS2 coat protein: 24.5 nM

## UGUAGUUCAGGAUAUGAUGUUAAAUACAUGAGGAUCACCCAUGUAGAUCCUGAAUUUACAUCAGAAGGGAAUAUUU [JL-ex5-4.56 Brourd mod] (Eterna round: R97, puzzle: Exclusion 5)
Input ligand: FMN 200 uM
  apparent KD of MS2 coat protein: 22.8 nM
Input ligand: none
  apparent KD of MS2 coat protein: 17.1 nM

## GUGAAGAAGUUAGUGGCCUACAUGAGGAUCACCCAUGUGAGGGAAAUGUUGAGGCGAAAGUUGUGUGCUCGUCUGUA [JR_SV3TOV1_Sub040] (puzzle: Sensor v3, turn-off variant 1)
[3]
  apparent KD of MS2 coat protein: 27.1 nM
[2]
  apparent KD of MS2 coat protein: 52.1 nM
[4]
  apparent KD of MS2 coat protein: 31.1 nM

## UUUACAAGCUUAUGAUCCCACAUGAGGAUCACCCAUGUUGCUGCCGGUGACGGUAGCAUAACAUAUGCUCGUCUUAU [JL TOV1 3.57] (Eterna round: R97, puzzle: Sensor, turn-off variant 1)
Input ligand: FMN 200 uM
  apparent KD of MS2 coat protein: 1570 nM
Input ligand: none
  apparent KD of MS2 coat protein: 1840 nM

## UUUUUAUAUGAAGGAUAUACUUAACAUGAGGAUCACCCAUGUGGUGUUGUGAGUGAGUGAGUUUAGUAGAAGGUCAAGUACUUU [JMF's solution 37] (Eterna round: R96, puzzle: Exclusion NG 2)
Input ligand: FMN 200 uM
  apparent KD of MS2 coat protein: 614 nM
[1]
  apparent KD of MS2 coat protein: 380 nM
Input ligand: none
  apparent KD of MS2 coat protein: 574 nM

## ACGCGAGUAGGAGGAUAUUCCGAGCGCGGGCCGGGAGAAGGCCUAGAUCGUGAACAUGAGGAUCACCCAUGUGGGAUGAUCUAA [Ededaranri] (Eterna round: R96, puzzle: Exclusion NG 1)
Input ligand: FMN 200 uM
  apparent KD of MS2 coat protein: 8.23 nM
[1]
  apparent KD of MS2 coat protein: 94.9 nM
Input ligand: none
  apparent KD of MS2 coat protein: 313 nM

## UCUUUAGGUGUUAGGAUAUACCUGCGCAAAGUUAGGUAGAAGGGACAUGAGGAUCACCCAUGUGCGUCCACAAU [Eternabot (L1) Solution 29] (Eterna round: R97, puzzle: Brourd's mod of Exclusion 4)
Input ligand: FMN 200 uM
  apparent KD of MS2 coat protein: 30.4 nM
Input ligand: none
  apparent KD of MS2 coat protein: 27.5 nM

## UUUUACAAGCUAAGAUCCUACAUGAGGAUCACCCAUGUGGUCCGGUGACGUGAGUCACCGGACUUAGCUCGUCUUGA [salish99_S_TOV1_R5_085] (Eterna round: R97, puzzle: Sensor, turn-off variant 1)
Input ligand: FMN 200 uM
  apparent KD of MS2 coat protein: 38.9 nM
Input ligand: none
  apparent KD of MS2 coat protein: 40.4 nM

## CGUAUGUCAGGAUAUCGUGCAUACAACGAAAGUUCUAUGUGCGAGAAGGGACAUGAGGAUCACCCAUGUUUACG [Omei Ex4 A12] (Eterna round: R97, puzzle: Exclusion 4)
Input ligand: FMN 200 uM
  apparent KD of MS2 coat protein: 89 nM
Input ligand: none
  apparent KD of MS2 coat protein: 26.1 nM

## CGUGCGUAUGUGAGGAUAUGCUGGUCCUUGGAUCAGCAGAAGGCACAUGAGGAUCACCCAUGUGGUGUCGUACC [salish99_Bmod_Ex4_001] (puzzle: Brourd's mod of Exclusion 4)
[2]
  apparent KD of MS2 coat protein: 170 nM

## AAUUAGUGUGUGAGGAUAUUGGUGGAAUGACUUAUUAAGAAGGCACAUGAGGAUCACCCAUGUGGGAAGUCACG [JR_BMEx4_Sub014] (Eterna round: R97, puzzle: Brourd's mod of Exclusion 4)
Input ligand: FMN 200 uM
  apparent KD of MS2 coat protein: 10.1 nM
Input ligand: none
  apparent KD of MS2 coat protein: 12 nM

## AGCGUGGAGACAGGAUAUGAGAAUAGAUAGAACUCAGAAGGGUCACAUGAGGAUCACCCAUGUAAAGUCUUGAGGAUGAGUGAU [Prohibition 4 - Jieux - Exclusion NG 1] (Eterna round: R96, puzzle: Exclusion NG 1)
Input ligand: FMN 200 uM
  apparent KD of MS2 coat protein: 192 nM
[1]
  apparent KD of MS2 coat protein: 57.7 nM
Input ligand: none
  apparent KD of MS2 coat protein: 73.5 nM

## AAUGUUUGAUACCUUUAAUACAUGAGGAUCACCCAUGUUAUCGAGGAUAUGUAGAAGAGAUGAGAACAGAAGGCGAAGUAAGAG [JR_ExcNG3_Sub097] (Eterna round: R96, puzzle: Exclusion NG 3)
Input ligand: FMN 200 uM
  apparent KD of MS2 coat protein: 29.5 nM
[1]
  apparent KD of MS2 coat protein: 10.5 nM
Input ligand: none
  apparent KD of MS2 coat protein: 15.1 nM

## CUUUUUGUUGAGGAUAUGCACCAGCUCACUGACGCAGAAGGCGACACAUGAGGAUCACCCAUGUCAGUUCGCGU [salish99_ex6_r004_431] (Eterna round: R97, puzzle: Exclusion 6)
Input ligand: FMN 200 uM
  apparent KD of MS2 coat protein: 21.5 nM
Input ligand: none
  apparent KD of MS2 coat protein: 16.8 nM

## GCCAGAGCAGGAUAUUCAAUAAUUCACAUGAGGAUCACCCAUGUCCAGCGAAAGCUGGAAGGAGAAGGGCUCUGGC [Fiskers Ex 5 - 3] (puzzle: Exclusion 5)
[2]
  apparent KD of MS2 coat protein: 14.5 nM
